This test has as its target F-SSB-Ct peptide (SSB-Ct with an N-terminal fluoresceine moiety) (E. coli). Description: fluorescence polarisation. A general note: In fluorescence polarisation assays a small probe gives low polarisation when free and higher when bound to something large.

SSB–ExoI fusion protein: the Kd was found to be 1100 nM.

By Kd is commonly meant the free concentration of one partner at which half of the binding sites on the other are occupied at equilibrium, for simple one-to-one binding. A higher Kd goes with lower affinity.

Source of the values: article PMC3159472.
